Article PMC9170159 (2022)

Target: SARS-CoV-2 spike receptor-binding domain (RBD), Wuhan-Hu-1, His-tagged (SARS-CoV-2 (Wuhan-Hu-1), UniProt P0DTC2 319-541)
Experiment: BLI

B1: NCI-CoV-1B5 VHH-hFc fusion protein (Fc fusion)
chain: DVQLVESGGGSVQAGGSLRLSCTGSRYTYSTYCMGWFRQAPGKEEEAVAIINSGGGEPYYGDSVKGRFTISQDRAKNTVYLQMDGLQPDDTAIYYCVAADSHNSRCYLGRSYVNYWGQGTQVTVSS
B1 showed a Kd of 0.1 nM.
